According to patent US20020110853A1:

Biological target: FLAG-TWEAKR, expressed on transfected HUVEC (human) (UniProt Q9NP84)
Assay: cell-based or functional assay

FLAG-TWEAKR, expressed on transfected HUVEC (human), sequence (Q9NP84 28-129): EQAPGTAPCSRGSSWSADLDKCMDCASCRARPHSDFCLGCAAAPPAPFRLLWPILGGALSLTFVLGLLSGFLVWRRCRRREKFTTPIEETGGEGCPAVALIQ

BrdU incorporation of FLAG-TWEAKR expressing HUVEC, against goat anti-mouse IgG alone: 3 fold | BrdU incorporation of FLAG-TWEAKR expressing HUVEC, against vector-only transfected HUVEC with the cross-linking complex: 6 fold
Substance: M2 anti-FLAG monoclonal antibody
